Test results published in article PMC12500691.

Target: Spike
Experiment: SPR

Sequence of human angiotensin converting enzyme 2 (Q9BYF1 20-611): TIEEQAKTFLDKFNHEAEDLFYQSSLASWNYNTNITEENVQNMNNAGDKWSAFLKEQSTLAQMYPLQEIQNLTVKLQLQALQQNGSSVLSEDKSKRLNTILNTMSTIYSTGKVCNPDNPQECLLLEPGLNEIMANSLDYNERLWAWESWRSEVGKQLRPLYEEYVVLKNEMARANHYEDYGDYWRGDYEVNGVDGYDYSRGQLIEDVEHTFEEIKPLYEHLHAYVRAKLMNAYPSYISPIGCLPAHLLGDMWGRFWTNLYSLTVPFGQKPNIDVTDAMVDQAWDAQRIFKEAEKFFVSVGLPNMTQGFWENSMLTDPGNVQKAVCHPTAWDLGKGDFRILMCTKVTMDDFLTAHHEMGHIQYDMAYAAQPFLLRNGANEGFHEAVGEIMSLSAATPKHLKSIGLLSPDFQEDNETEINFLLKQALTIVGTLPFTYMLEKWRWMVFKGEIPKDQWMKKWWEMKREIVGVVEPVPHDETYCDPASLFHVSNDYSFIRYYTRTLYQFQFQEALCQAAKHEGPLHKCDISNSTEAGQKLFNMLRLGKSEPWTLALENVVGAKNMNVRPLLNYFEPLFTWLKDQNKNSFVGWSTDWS

## human angiotensin converting enzyme 2 (from UniProt Q9BYF1-1 20-611) (receptor)
  Kd: 370 nM
